# According to paper PMC12025923 (Cells, 2025):
# B1: wild-type 14-3-3γ-3xHA [human] / GFP-SLP76 [human] (parent)
# chain 1: MVDREQLVQKARLAEQAERYDDMAAAMKNVTELNEPLSNEERNLLSVAYKNVVGARRSSWRVISSIEQKTSADGNEKKIEMVRAYREKIEKELEAVCQDVLSLLDNYLIKNCSETQYESKVFYLKMKGDYYRYLAEVATGEKRATVVESSEKAYSEAHEISKEHMQPTHPIRLGLALNYSVFYYEIQNAPEQACHLAKTAFDDAIAELDTLNEDSYKDSTLIMQLLRDNLTLWTSDQQDDDGGEGNN
# chain 2: MALRNVPFRSEVLGWDPDSLADYFKKLNYKDCEKAVKKYHIDGARFLNLTENDIQKFPKLRVPILSKLSQEINKNEERRSIFTRKPQVPRFPEETESHEEDNGGWSSFEEDDYESPNDDQDGEDDGDYESPNEEEEAPVEDDADYEPPPSNDEEALQNSILPAKPFPNSNSMYIDRPPSGKTPQQPPVPPQRPMAALPPPPAGRNHSPLPPPQTNHEEPSRSRNHKTAKLPAPSIDRSTKPPLDRSLAPFDREPFTLGKKPPFSDKPSIPAGRSLGEHLPKIQKPPLPPTTERHERSSPLPGKKPPVPKHGWGPDRRENDEDDVHQRPLPQPALLPMSSNTFPSRSTKPSPMNPLPSSHMPGAFSESNSSFPQSASLPPYFSQGPSNRPPIRAEGRNFPLPLPNKPRPPSPAEEENSLNEEWYVSYITRPEAEAALRKINQDGTFLVRDSSKKTTTNPYVLMVLYKDKVYNIQIRYQKESQVYLLGTGLRGKEDFLSVSDIIDYFRKMPLLLIDGKNRGSRYQCTLTHAAGYP
# Variants of: B1
# Assay: co-immunoprecipitation, quantified Western blot
# Details: with GFP-SLP76 [human]; N2a cells; read off a plot
row,Variant,ratio to parent (fold of wild-type)
1,chain 1 R57C,0.2
